Test results from the supplement of paper PMC11246515.
± gives the standard deviation of the averaged measurements.

Assay: total protein half-life in vivo (active degradation + dilution); higher = more stable protein
[1] = E. coli NCM3722 delta-clpP delta-lon delta-hslV, growth: N-lim chemostat, doubling time 6 h
[2] = E. coli NCM3722 delta-clpP, growth: N-lim chemostat, doubling time 6 h
[3] = E. coli NCM3722 delta-hslV, growth: N-lim chemostat, doubling time 6 h
[4] = E. coli NCM3722 delta-lon, growth: N-lim chemostat, doubling time 6 h
[5] = E. coli NCM3722 delta-smpB, growth: N-lim chemostat, doubling time 6 h
[6] = wild type E. coli NCM3722, growth: C-lim chemostat, doubling time 3 h
[7] = wild type E. coli NCM3722, growth: C-lim chemostat, doubling time 6 h
[8] = wild type E. coli NCM3722, growth: C-lim chemostat, doubling time 12 h
[9] = wild type E. coli NCM3722, growth: N-lim chemostat, doubling time 6 h
[10] = wild type E. coli NCM3722, growth: N-lim chemostat, doubling time 12 h
[11] = wild type E. coli NCM3722, growth: P-lim chemostat, doubling time 6 h
[12] = wild type E. coli NCM3722, growth: P-lim chemostat, doubling time 12 h

Sequence | total protein half-life in vivo [1] [h] | total protein half-life in vivo [2] [h] | total protein half-life in vivo [3] [h] | total protein half-life in vivo [4] [h] | total protein half-life in vivo [5] [h] | total protein half-life in vivo [6] [h] | total protein half-life in vivo [7] [h] | total protein half-life in vivo [8] [h] | total protein half-life in vivo [9] [h] | total protein half-life in vivo [10] [h] | total protein half-life in vivo [11] [h] | total protein half-life in vivo [12] [h]
MSANAETQTPQQPVKKSGKRKRLLLLLTLLFIIIAVAIGIYWFLVLRHFEETDDAYVAGNQIQIMSQVSGSVTKVWADNTDFVKEGDVLVTLDPTDARQAFEKAKTALASSVRQTHQLMINSKQLQANIEVQKIALAKAQSDYNRRVPLGNANLIGREELQHARDAVTSAQAQLDVAIQQYNANQAMILGTKLEDQPAVQQAATEVRNAWLALERTRIISPMTGYVSRRAVQPGAQISPTTPLMAVVPATNMWVDANFKETQIANMRIGQPVTITTDIYGDDVKYTGKVVGLDMGTGSAFSLLPAQNATGNWIKVVQRLPVRIELDQKQLEQYPLRIGLSTLVSVNTTNRDGQVLANKVRSTPVAVSTAREISLAPVNKLIDDIVKANAG | 6.17 ± 0.42 | 6.38 ± 0.53 | 6.57 ± 0.12 | 6.37 ± 0.58 | 6.1 ± 0.26 | 2.99 ± 0.1 | 6.37 ± 0.2 | 13.5 ± 1.8 | 6.17 ± 0.1 | 12 ± 0.35 | 6.47 ± 0.29 | 13.6 ± 2.7
MSANTEAQGSGRGLEAMKWVVVVALLLVAIVGNYLYRDIMLPLRALAVVILIAAAGGVALLTTKGKATVAFAREARTEVRKVIWPTRQETLHTTLIVAAVTAVMSLILWGLDGILVRLVSFITGLRF [P0AG96] | 4.72 | 3.93 | 4.78 ± 0.21 | 4.6239 ± 0.0021 | 4.69 ± 0.097 | 2.81 ± 0.067 | 5.11 ± 0.16 | 9.61 | 4.48 ± 0.26 | 8.61 ± 1.6 | 4.43 | 8.75 ± 1.2
MSAQPVDIQIFGRSLRVNCPPDQRDALNQAADDLNQRLQDLKERTRVTNTEQLVFIAALNISYELAQEKAKTRDYAASMEQRIRMLQQTIEQALLEQGRITEKTNQNFE [P0ADS2] | – | > 8 | 6.14 ± 0.47 | 6.82 ± 0.47 | 5.21 ± 0.4 | 3.87 | 6.05 ± 0.48 | 10.5 | 4.5 ± 0.25 | 9.14 ± 1.6 | 5.16 ± 0.74 | 10.8 ± 1
MSASLAILTIGIVPMQEVLPLLTEYIDEDNISHHSLLGKLSREEVMAEYAPEAGEDTILTLLNDNQLAHVSRRKVERDLQGVVEVLDNQGYDVILLMSTANISSMTARNTIFLEPSRILPPLVSSIVEDHQVGVIVPVEEMLPVQAQKWQILQKSPVFSLGNPIHDSEQKIIDAGKELLAKGADVIMLDCLGFHQRHRDLLQKQLDVPVLLSNVLIARLAAELLV [P0AE28] | 3.97 | 2.28 | – | – | 1.41 | 2.32 ± 0.053 | 3.15 ± 0.55 | 3.7 | 1.67 ± 0.018 | – | – | 7.89
MSCPVIELTQQLIRRPSLSPDDAGCQALLIERLQAIGFTVERMDFADTQNFWAWRGQGETLAFAGHTDVVPPGDADRWINPPFEPTIRDGMLFGRGAADMKGSLAAMVVAAERFVAQHPNHTGRLAFLITSDEEASAHNGTVKVVEALMARNERLDYCLVGEPSSIEVVGDVVKNGRRGSLTCNLTIHGVQGHVAYPHLADNPVHRAAPFLNELVAIEWDQGNEFFPATSMQIANIQAGTGSNNVIPGELFVQFNFRFSTELTDEMIKAQVLALLEKHQLRYTVDWWLSGQPFLTARGKLVDAVVNAVEHYNEIKPQLLTTGGTSDGRFIARMGAQVVELGPVNATIHKINECVNAADLQLLARMYQRIMEQLVA [P0AED7] | 4.94 ± 0.53 | 4.52 ± 0.093 | 4.42 ± 0.081 | 5.76 ± 1.5 | 4.4 ± 0.41 | 3.05 ± 0.25 | 5.7 ± 0.46 | 9.7 ± 0.28 | 4.418 ± 0.036 | 7.37 ± 0.72 | 5.6 ± 0.48 | 11 ± 1.8
MSDDMSMGLPSSAGEHGVLRSMQEVAMSSQEASKMLRTYNIAWWGNNYYDVNELGHISVCPDPDVPEARVDLAQLVKTREAQGQRLPALFCFPQILQHRLRSINAAFKRARESYGYNGDYFLVYPIKVNQHRRVIESLIHSGEPLGLEAGSKAELMAVLAHAGMTRSVIVCNGYKDREYIRLALIGEKMGHKVYLVIEKMSEIAIVLDEAERLNVVPRLGVRARLASQGSGKWQSSGGEKSKFGLAATQVLQLVETLREAGRLDSLQLLHFHLGSQMANIRDIATGVRESARFYVELHKLGVNIQCFDVGGGLGVDYEGTRSQSDCSVNYGLNEYANNIIWAIGDACEENGLPHPTVITESGRAVTAHHTVLVSNIIGVERNEYTVPTAPAEDAPRALQSMWETWQEMHEPGTRRSLREWLHDSQMDLHDIHIGYSSGIFSLQERAWAEQLYLSMCHEVQKQLDPQNRAHRPIIDELQERMADKMYVNFSLFQSMPDAWGIDQLFPVLPLEGLDQVPERRAVLLDITCDSDGAIDHYIDGDGIATTMPMPEYDPENPPMLGFFMVGAYQEILGNMHNLFGDTEAVDVFVFPDGSVEVELSDEGDTVADMLQYVQLDPKTLLTQFRDQVKKTDLDAELQQQFLEEFEAGLYGYTYLEDE | 4.96 ± 0.56 | 4.38 ± 0.22 | 4.3 ± 0.57 | 4.28 ± 0.16 | 3.97 ± 0.11 | 2.872 ± 0.017 | 5.43 ± 0.37 | 9.85 ± 0.33 | 3.93 ± 0.19 | 5.91 ± 0.16 | 5.54 ± 0.16 | 11.5 ± 0.38
MSDEGLAPGKRLSEIRQQQGLSQRRAAELSGLTHSAISTIEQDKVSPAISTLQKLLKVYGLSLSEFFSEPEKPDEPQVVINQDDLIEMGSQGVSMKLVHNGNPNRTLAMIFETYQPGTTTGERIKHQGEEIGTVLEGEIVLTINGQDYHLVAGQSYAINTGIPHSFSNTSAGICRIISAHTPTTF [P0A9U6] | 5.35 ± 0.67 | 5.41 ± 3.1 | 3.29 | 4.06 ± 0.25 | 2.66 ± 0.063 | – | 4.03 ± 0.12 | 5.53 ± 0.11 | 2.7 ± 0.51 | 3.47 ± 0.064 | 4.43 ± 0.92 | 6.69 ± 0.82
